Data on nine molecules can be found in patent publication US7514594B2, “Transgenic animal model of bone mass modulation” (Wyeth, priority 2003, dated 2009).

One test concerns Wnt pathway. Briefly: Xenopus embryo assay of Wnt pathway stimulation. Type of test: in vivo. The settings on record: for stimulation of the Wnt pathway: in combination with Wnt5a. An excerpt: Axin was also identified from the two hybrid experiments. This protein is involved in inhibition of the Wnt signaling pathway and interacts with the tumor suppressor APC. There is a link here with the focal adhesion signaling described above: one common step in the two pathways involves inhibition of glycogen synthase kinase 3, which in turn results in the activation of β-catenin/Lef-1 and AP-1 transcription factors. Axin/APC are involved in this as well as integrin linked kinase. The Wnt pathway has a role in determining cell fates during embryogenesis. If inappropriately activated, the Wnt pathway may also lead to cancer. The Wnt pathway also seems to have a role in cytoskeletal rearrangements. […] A model depicting LRP5 involvement in focal adhesion signaling is depicted in FIG. 15.

The subject of test [1] is ovariectomized het and ntg mice. Briefly: ovx-induced osteopenia in het and ntg mice treated with 17β-estradiol. Type of test: in vivo, mouse. The settings on record: both het and ntg; ovariectomized at 9 weeks; 10 μg/kg/day 17β-estradiol for 35 days. The protocol:
To determine whether the mutation had any effect on ovx-induced osteopenia, het and ntg mice were ovariectomized at 9 weeks of age and treated for 35 days with vehicle or 10 μg/kg/day 17β-estradiol (E2). The percent change in total, trabecular and cortical density in het and ntg ovx mice from those values in their respective sham operated controls were determined. […] Ovariectomy induced a 14.3% decrease in total BMD (696±6 to 597±7 mg/cm^3) and a 26.3% decrease in trabecular BMD (445±9 to 328±7 mg/cm^3) in the het group and a 14.9% decrease in total BMD (470±10 to 400±7 mg/cm^3) and 37.6% decrease in trabecular BMD (132±4 to 82±2 mg/cm^3) in the ntg group.

The subject of test [2] is LRP5-mediated Wnt signaling. Briefly: Dkk-1 repression of LRP5-mediated Wnt signaling. Type of test: cell-based. An excerpt: (§1) 1, 2002, and 60/361,293 filed Mar. 4, 2002. This observation is of particular interest because the HBM mutation in LRP5 is a gain of function or activation mutation. That is, Wnt signaling, via the canonical pathway, is enhanced with HBM versus LRP5. Not wishing to be bound by theory, it is believed that this interaction provides an explanation of the developmental signaling differences between HBM and the more common LRP5/LRP6.

In test [3] the test system is HBM-mediated Wnt signaling. Nature of the test: Dkk-1 repression of HBM-mediated Wnt signaling. It is filed as cell-based. The settings on record: compared with LRP5-mediated signaling.
From the text: as §1

In another test the target is LRP5 (Homo sapiens, UniProt O75197). Briefly: Dkk-1 binding to LRP5. Conditions: observed by the inventors. An excerpt: 1, 2002, and 60/361,293 filed Mar. 4, 2002. The two-hybrid screen is a common procedure in the art, which is described, for example, by Gietz et al., Mol. Cell. Biochem. 172:67-79 (1997); Young, Biol. Reprod. 58:302-11 (1998); Brent and Finley, Ann. Rev. Genet. 31:663-704 (1997); and Lu and Hannon, eds., Yeast Hybrid Technologies, Eaton Publishing, Natick Mass., (2000).
Sequence of LRP5 (O75197 32-1615): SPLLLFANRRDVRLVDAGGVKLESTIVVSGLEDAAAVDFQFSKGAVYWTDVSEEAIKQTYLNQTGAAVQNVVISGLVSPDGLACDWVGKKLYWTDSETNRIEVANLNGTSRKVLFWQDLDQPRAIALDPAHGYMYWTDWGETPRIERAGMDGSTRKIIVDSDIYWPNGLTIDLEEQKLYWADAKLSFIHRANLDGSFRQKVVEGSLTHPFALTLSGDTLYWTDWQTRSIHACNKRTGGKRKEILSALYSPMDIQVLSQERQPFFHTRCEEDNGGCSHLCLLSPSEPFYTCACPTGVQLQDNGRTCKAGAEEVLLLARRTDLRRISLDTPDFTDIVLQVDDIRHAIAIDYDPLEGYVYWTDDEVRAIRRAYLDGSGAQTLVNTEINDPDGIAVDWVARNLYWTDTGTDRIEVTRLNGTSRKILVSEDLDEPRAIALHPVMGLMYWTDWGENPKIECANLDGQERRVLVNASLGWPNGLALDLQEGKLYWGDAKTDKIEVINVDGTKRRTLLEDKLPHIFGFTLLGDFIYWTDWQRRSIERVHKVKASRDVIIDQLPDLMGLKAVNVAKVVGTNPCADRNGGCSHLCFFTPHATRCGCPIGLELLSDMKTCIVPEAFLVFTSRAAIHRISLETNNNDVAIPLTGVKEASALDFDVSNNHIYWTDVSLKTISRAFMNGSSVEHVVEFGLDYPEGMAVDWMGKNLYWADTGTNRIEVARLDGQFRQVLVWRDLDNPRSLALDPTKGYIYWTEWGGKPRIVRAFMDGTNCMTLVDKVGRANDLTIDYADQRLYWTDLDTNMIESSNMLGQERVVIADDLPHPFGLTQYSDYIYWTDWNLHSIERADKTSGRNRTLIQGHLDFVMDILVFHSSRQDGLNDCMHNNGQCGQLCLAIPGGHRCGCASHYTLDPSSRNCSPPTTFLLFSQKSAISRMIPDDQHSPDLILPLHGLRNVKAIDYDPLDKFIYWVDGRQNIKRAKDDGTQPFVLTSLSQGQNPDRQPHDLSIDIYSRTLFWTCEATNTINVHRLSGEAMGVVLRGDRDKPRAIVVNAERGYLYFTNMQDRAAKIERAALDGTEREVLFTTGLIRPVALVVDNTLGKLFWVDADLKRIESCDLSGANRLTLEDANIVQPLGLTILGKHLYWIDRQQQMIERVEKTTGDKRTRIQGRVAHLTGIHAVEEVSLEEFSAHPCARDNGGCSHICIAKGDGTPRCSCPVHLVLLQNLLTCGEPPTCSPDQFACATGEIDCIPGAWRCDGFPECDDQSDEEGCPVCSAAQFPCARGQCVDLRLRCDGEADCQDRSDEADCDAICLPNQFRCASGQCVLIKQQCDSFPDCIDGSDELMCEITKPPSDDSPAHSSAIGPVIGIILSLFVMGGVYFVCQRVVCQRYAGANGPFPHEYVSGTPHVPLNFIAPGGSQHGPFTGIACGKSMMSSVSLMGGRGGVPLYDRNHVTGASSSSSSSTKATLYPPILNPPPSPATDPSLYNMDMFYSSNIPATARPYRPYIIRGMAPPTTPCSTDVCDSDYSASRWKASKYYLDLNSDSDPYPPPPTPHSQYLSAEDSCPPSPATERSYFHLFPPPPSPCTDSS
(§2) It may be that the reduced effectiveness of Dkk inhibition of LRP5 which is observed for HBM is not necessarily mediated by enhancing or preventing the binding of Dkk to LRP5/LRP6/HBM. More than one mechanism may be involved. […] Further, it has been observed that different members of the Dkk family differentially affect LRP5/LRP6/HBM activity. Rather, the more preferred approach is to develop a drug or therapy which results in the desired protective benefits by reproducing as nearly as possible the subtle effect of HBM. The ability to refine and test potential drugs and therapies by comparing their effects to an animal model of HBM is among the major features of the present invention.

Test [4] deals with T1, LRP6 (Homo sapiens, UniProt O75581). Briefly: Dkk-1 binding to LRP6. The settings on record: observed by the inventors.
T1 sequence (O75581 20-1613, species assumed): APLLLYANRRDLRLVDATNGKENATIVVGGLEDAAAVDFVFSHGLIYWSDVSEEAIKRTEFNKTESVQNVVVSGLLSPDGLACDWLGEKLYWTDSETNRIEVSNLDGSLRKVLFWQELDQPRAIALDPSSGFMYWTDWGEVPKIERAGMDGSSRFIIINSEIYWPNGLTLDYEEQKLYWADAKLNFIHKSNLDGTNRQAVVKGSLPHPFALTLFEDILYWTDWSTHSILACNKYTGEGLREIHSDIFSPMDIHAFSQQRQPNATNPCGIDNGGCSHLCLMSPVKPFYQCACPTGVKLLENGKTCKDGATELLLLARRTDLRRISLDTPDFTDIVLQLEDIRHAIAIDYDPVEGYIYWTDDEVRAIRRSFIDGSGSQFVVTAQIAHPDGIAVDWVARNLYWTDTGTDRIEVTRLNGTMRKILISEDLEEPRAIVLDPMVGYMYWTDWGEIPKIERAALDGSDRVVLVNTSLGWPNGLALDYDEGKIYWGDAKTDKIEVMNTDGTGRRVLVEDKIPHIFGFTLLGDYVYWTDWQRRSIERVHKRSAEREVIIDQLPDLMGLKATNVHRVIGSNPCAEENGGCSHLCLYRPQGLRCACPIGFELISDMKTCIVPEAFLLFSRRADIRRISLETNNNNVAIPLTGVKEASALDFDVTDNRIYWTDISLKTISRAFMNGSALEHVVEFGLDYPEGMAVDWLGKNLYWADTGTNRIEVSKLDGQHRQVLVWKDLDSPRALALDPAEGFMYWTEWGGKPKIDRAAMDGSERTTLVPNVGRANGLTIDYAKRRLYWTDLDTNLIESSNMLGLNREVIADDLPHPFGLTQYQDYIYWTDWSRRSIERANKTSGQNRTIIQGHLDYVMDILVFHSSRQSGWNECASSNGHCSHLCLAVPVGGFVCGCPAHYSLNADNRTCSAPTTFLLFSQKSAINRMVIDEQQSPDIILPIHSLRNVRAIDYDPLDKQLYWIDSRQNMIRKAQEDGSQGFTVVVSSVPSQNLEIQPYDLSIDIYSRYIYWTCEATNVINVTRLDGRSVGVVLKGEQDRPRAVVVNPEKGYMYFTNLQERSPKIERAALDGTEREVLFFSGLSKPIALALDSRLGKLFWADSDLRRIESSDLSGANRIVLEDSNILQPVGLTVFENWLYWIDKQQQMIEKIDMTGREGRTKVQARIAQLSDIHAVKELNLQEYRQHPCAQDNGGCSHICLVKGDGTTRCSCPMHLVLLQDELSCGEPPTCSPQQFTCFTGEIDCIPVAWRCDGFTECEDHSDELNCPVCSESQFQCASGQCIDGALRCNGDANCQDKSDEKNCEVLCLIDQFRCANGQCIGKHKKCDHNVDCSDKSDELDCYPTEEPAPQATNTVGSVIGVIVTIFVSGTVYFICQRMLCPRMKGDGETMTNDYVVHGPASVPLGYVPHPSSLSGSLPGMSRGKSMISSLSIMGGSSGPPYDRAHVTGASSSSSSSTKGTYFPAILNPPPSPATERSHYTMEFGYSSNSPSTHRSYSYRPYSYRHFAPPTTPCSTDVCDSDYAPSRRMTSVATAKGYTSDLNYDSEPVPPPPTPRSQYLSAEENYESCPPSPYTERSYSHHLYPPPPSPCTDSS
From the text: as §2

The target of the next test is HBM (Homo sapiens, UniProt O75197, G171V). Nature of the test: Dkk-1 binding to HBM. Conditions: observed by the inventors.
Sequence of HBM (O75197 32-1615 G171V): as the sequence (O75197 32-1615) above, with G140V counted along it
From the text: as §2

In the next test the test system is canonical Wnt signaling. Conditions: cited from earlier work.
The subject of test [5] is LRP5 G171V transgenic (het) and non-transgenic littermate (ntg) mice. Briefly: hPTH treatment of LRP5 G171V transgenic and non-transgenic mice, femoral density by pQCT. It is filed as in vivo, mouse. The settings on record: for Percent Change in Bone Mass Density After 30 Days of hPTH Treatment, cortical, ntg / Percent Change in Bone Mass Density After 30 Days of hPTH Treatment, cortical, transgenic / Percent Change in Bone Mass Density After 30 Days of hPTH Treatment, total, ntg / Percent Change in Bone Mass Density After 30 Days of hPTH Treatment, total, transgenic / Percent Change in Bone Mass Density After 30 Days of hPTH Treatment, trabecular, ntg / Percent Change in Bone Mass Density After 30 Days of hPTH Treatment, trabecular, transgenic: left femur pQCT, vs vehicle controls. The protocol: In order to further examine increases in bone density that were detected in select transgenic lines through monitoring of the animals by non-invasive bone imaging, necropsies were performed on animals of these lines at 5 and 9 weeks of age for direct bone densitometric and histologic analysis. The left femur was isolated, cleaned and positioned in an XCT Research peripheral Quantitative Computed Tomograph (pQCT; Stradtec Medizintechnik, Pforzheim, Germany). The distal end of the femur was located and pQCT scanning was initiated 2.5 mm proximal from this point for total and trabecular measurements. The pQCT scan for cortical measurements was initiated 3.5 mm proximal from the first scan (i.e., 6 mm proximal from the distal end). […] The soft tissue was automatically removed using an iterative algorithm, and the density of the remaining bone (total density) in the first slice was determined. The outer 55% of the bone was then peeled away in a concentric spiral and the density of the remaining bone (trabecular density) of the first slice was reported in mg/cm^3. In the second slice, the boundary between cortical and trabecular bone was determined using an iterative algorithm, and the density of the cortical bone was determined.
[…] Total, trabecular and cortical densities were measured in excised left femur by pQCT. PTH response was normalized to the bone densities of the vehicle group and expressed as percent change from their respective vehicle controls.

The target in test [6] is T1, LRP6. The settings on record: Semenov et al.; cited from earlier work.
The target of test [7] is T1, LRP6. The settings on record: Mao et al.; cited from earlier work.
The mark [8] stands for this setting: extracellular domains, absence of Wnt5a.
Setting [9] is: ntg animals, treatment with PTH.

Consider “HBM: protein identical to LRP5 except for an alteration of glycine 171 to valine”, for which the “stimulation of the Wnt pathway” value in the test with Wnt pathway is given as “much greater extent”.

With “LRP5: wild-type LRP5 protein (SEQ ID NO: 3)”, the “stimulation of the Wnt pathway” value in the test with Wnt pathway is reported as “modestly above the control”.

Regarding `C[C@]12CC[C@@H]3c4ccc(O)cc4CC[C@H]3[C@@H]1CC[C@@H]2O` [E2, 17β-estradiol], the ovx-induced bone loss result in test [1] is recorded as “completely prevented”.

With “Dkk-1: protein dickkopf-1, an antagonist of the Wnt pathway”, in test [2], the “repression of LRP5-mediated Wnt signaling” value is given as “able to repress”. In test [3], the “repression of HBM-mediated Wnt signaling” value is on record as “less effective”. In the test with LRP5, the “binding to LRP5” value is “binds”. The “binding to LRP6” value with LRP6 [4] is on record as “binds”. For the same molecule, the “binding to HBM” value in the test with HBM is listed as “binds”. Further, in the test with canonical Wnt signaling (Bafico et al., Dkk-1 added at extremely low concentrations (30 pM)), the “canonical Wnt signaling” value was “repression”.

For “LRP5 ECD: extracellular domain (ECD) of LRP5”, the “stimulation of Wnt signaling” value in the test with Wnt pathway (setting [8]) was “modest stimulation”.

B1: human parathyroid hormone (peptide, UniProt P01270 32-115, looked up)
Parathyroid hormone: SVSEIQLMHNLGKHLNSMERVEWLRKKLQDVHNFVALGAPLAPRDAGSQRPRKKEDNVLVESHEKSLGEADKADVNVLTKAKSQ
modifications: Parathyroid hormone
notes: human parathyroid hormone (hPTH), anabolic agent
Take B1: in test [5] (Female), the “Percent Change in Bone Mass Density After 30 Days of hPTH Treatment, cortical, ntg” value turned out to be 4%; the “Percent Change in Bone Mass Density After 30 Days of hPTH Treatment, cortical, transgenic” value is −1%; the “Percent Change in Bone Mass Density After 30 Days of hPTH Treatment, total, ntg” value came out at 18%; the “Percent Change in Bone Mass Density After 30 Days of hPTH Treatment, total, transgenic” value was 30%. In test [5] (Female), the “Percent Change in Bone Mass Density After 30 Days of hPTH Treatment, trabecular, ntg” value was −3% and the “Percent Change in Bone Mass Density After 30 Days of hPTH Treatment, trabecular, transgenic” value was 59%. Further, in test [5] (Male, hPTH 100 mg/kg/day sc), the “Percent Change in Bone Mass Density After 30 Days of hPTH Treatment, cortical, ntg” value is recorded as 3%; the “Percent Change in Bone Mass Density After 30 Days of hPTH Treatment, cortical, transgenic” value was determined as 2%; the “Percent Change in Bone Mass Density After 30 Days of hPTH Treatment, total, ntg” value stood at 23%; the “Percent Change in Bone Mass Density After 30 Days of hPTH Treatment, total, transgenic” value is listed as 37%. In addition, in test [5] (Male, hPTH 100 mg/kg/day sc), the “Percent Change in Bone Mass Density After 30 Days of hPTH Treatment, trabecular, ntg” value is 5% and the “Percent Change in Bone Mass Density After 30 Days of hPTH Treatment, trabecular, transgenic” value is 80%. The “total femoral BMD” value in test [5] (both het and ntg, treatment with PTH) is listed as “significant increase”. Also, in [5] (het animals, treatment with PTH), the trabecular bone compartment entry was “increase”. Moreover, in test [5] (setting [9]), the cortical bone result is “significant increase” and the “trabecular BMD” value is reported as “no changes”.

B2: Dkk-1 mutant having cysteine 220 changed to alanine: Dkk-1 mutant having cysteine 220 changed to alanine (protein, UniProt O94907 32-266, looked up, variant C220A)
Dickkopf-related protein 1: TLNSVLNSNAIKNLPPPLGGAAGHPGSAVSAAPGILYPGGNKYQTIDNYQPYPCAEDEECGTDEYCASPTRGGDAGVQICLACRKRRKRCMRHAMCCPGNYCKNGICVSSDQNHFRGEIEETITESFGNDHSTLDGYSRRTTLSSKMYHTKGQEGSVCLRSSDCASGLCCARHFWSKICKPVLKEGQVATKHRRKGSHGLEIFQRCYCGEGLSCRIQKDHHQASNSSRLHTCQRH
B2: the LRP6 binding entry with LRP6 [6] is reported as “abolished”. Besides, in the test on canonical Wnt signaling (Semenov et al.), the “repression of Wnt signaling” value is on record as “unable to repress”.

B3: Dkk-2: Dkk family protein found to directly bind LRP6 (protein, UniProt Q9UBU2 34-259, looked up)
Dickkopf-related protein 2: KLNSIKSSLGGETPGQAANRSAGMYQGLAFGGSKKGKNLGQAYPCSSDKECEVGRYCHSPHQGSSACMVCRRKKKRCHRDGMCCPSTRCNNGICIPVTESILTPHIPALDGTRHRDRNHGHYSNHDLGWQNLGRPHTKMSHIKGHEGDPCLRSSDCIEGFCCARHFWTKICKPVLHQGEVCTKQRKKGSHGLEIFQRCDCAKGLSCKVWKDATYSSKARLHVCQKI
Broadly, the Kd is the constant that tells how readily two partners part at equilibrium. Regarding B3, the Kd with LRP6 [7] is 730 pM.

B4: HBM ECD: extracellular domain (ECD) of HBM (protein, UniProt O75197 32-1384, looked up, variant G171V)
extracellular domain: SPLLLFANRRDVRLVDAGGVKLESTIVVSGLEDAAAVDFQFSKGAVYWTDVSEEAIKQTYLNQTGAAVQNVVISGLVSPDGLACDWVGKKLYWTDSETNRIEVANLNGTSRKVLFWQDLDQPRAIALDPAHGYMYWTDWVETPRIERAGMDGSTRKIIVDSDIYWPNGLTIDLEEQKLYWADAKLSFIHRANLDGSFRQKVVEGSLTHPFALTLSGDTLYWTDWQTRSIHACNKRTGGKRKEILSALYSPMDIQVLSQERQPFFHTRCEEDNGGCSHLCLLSPSEPFYTCACPTGVQLQDNGRTCKAGAEEVLLLARRTDLRRISLDTPDFTDIVLQVDDIRHAIAIDYDPLEGYVYWTDDEVRAIRRAYLDGSGAQTLVNTEINDPDGIAVDWVARNLYWTDTGTDRIEVTRLNGTSRKILVSEDLDEPRAIALHPVMGLMYWTDWGENPKIECANLDGQERRVLVNASLGWPNGLALDLQEGKLYWGDAKTDKIEVINVDGTKRRTLLEDKLPHIFGFTLLGDFIYWTDWQRRSIERVHKVKASRDVIIDQLPDLMGLKAVNVAKVVGTNPCADRNGGCSHLCFFTPHATRCGCPIGLELLSDMKTCIVPEAFLVFTSRAAIHRISLETNNNDVAIPLTGVKEASALDFDVSNNHIYWTDVSLKTISRAFMNGSSVEHVVEFGLDYPEGMAVDWMGKNLYWADTGTNRIEVARLDGQFRQVLVWRDLDNPRSLALDPTKGYIYWTEWGGKPRIVRAFMDGTNCMTLVDKVGRANDLTIDYADQRLYWTDLDTNMIESSNMLGQERVVIADDLPHPFGLTQYSDYIYWTDWNLHSIERADKTSGRNRTLIQGHLDFVMDILVFHSSRQDGLNDCMHNNGQCGQLCLAIPGGHRCGCASHYTLDPSSRNCSPPTTFLLFSQKSAISRMIPDDQHSPDLILPLHGLRNVKAIDYDPLDKFIYWVDGRQNIKRAKDDGTQPFVLTSLSQGQNPDRQPHDLSIDIYSRTLFWTCEATNTINVHRLSGEAMGVVLRGDRDKPRAIVVNAERGYLYFTNMQDRAAKIERAALDGTEREVLFTTGLIRPVALVVDNTLGKLFWVDADLKRIESCDLSGANRLTLEDANIVQPLGLTILGKHLYWIDRQQQMIERVEKTTGDKRTRIQGRVAHLTGIHAVEEVSLEEFSAHPCARDNGGCSHICIAKGDGTPRCSCPVHLVLLQNLLTCGEPPTCSPDQFACATGEIDCIPGAWRCDGFPECDDQSDEEGCPVCSAAQFPCARGQCVDLRLRCDGEADCQDRSDEADCDAICLPNQFRCASGQCVLIKQQCDSFPDCIDGSDELMCEITKPPSDDSPAHS
modifications: extracellular domain
Regarding B4, the “stimulation of Wnt signaling” value with Wnt pathway (extracellular domain, presence of Wnt5a) was “slightly increased”; in the test with Wnt pathway (setting [8]) it was “modest stimulation”.
